Laboratory results from patent US20060035329A1 (CARNEGIE INSTITUTION OF WASHINGTON, published 2006).

Key:
[1] = biological target: LexA-hr (hr amino acids 575-1215 fused to the lexA DNA binding domain) (rat); experiment: yeast two-hybrid, β-galactosidase activity with TRIAC (10^-6 M) against without hormone
[2] = biological target: TR (thyroid hormone receptor co-expressed with hr in the reporter assay); experiment: cell-based or functional assay
[3] = biological target: T1, hr fusion protein (hr amino acids 575-1215 fused to either GST or TrpE; which one is not said) (rat, UniProt P97609 549-1181); experiment: far western, 35S-labeled probe on immobilized hr fusion protein
T1 construct: also called the hr fusion protein; not shown: fusion partner is GST or TrpE
T1 sequence: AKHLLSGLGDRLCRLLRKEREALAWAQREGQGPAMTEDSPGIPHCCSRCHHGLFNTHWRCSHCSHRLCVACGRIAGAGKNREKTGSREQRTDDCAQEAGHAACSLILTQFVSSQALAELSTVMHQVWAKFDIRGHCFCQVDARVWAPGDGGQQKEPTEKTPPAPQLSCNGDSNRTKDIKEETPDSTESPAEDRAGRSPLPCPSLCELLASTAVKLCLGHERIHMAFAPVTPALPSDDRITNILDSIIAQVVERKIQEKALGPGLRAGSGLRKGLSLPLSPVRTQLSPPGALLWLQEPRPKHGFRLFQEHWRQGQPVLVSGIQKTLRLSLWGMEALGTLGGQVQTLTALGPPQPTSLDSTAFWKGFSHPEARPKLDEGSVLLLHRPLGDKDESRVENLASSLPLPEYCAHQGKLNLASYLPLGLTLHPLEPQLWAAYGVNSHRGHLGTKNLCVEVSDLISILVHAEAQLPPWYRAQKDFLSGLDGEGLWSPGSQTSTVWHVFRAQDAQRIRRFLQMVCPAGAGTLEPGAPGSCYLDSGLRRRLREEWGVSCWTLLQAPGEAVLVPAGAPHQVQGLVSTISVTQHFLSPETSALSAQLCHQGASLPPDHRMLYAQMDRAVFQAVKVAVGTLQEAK

Q: Which fold reduction of interaction by hormone [1] does the source give for “TRα1 (as tested in the two-hybrid assay) (receptor)” here?
A: Its fold reduction of interaction by hormone is 2 fold.

Q: With “hr (hairless gene product expressed from an expression construct containing the hr gene) (from UniProt P97609 1-1181)” as the molecule, how does the thyroid hormone induced transcription (TRE-containing reporter) [2] read?
A: Its thyroid hormone induced transcription (TRE-containing reporter) is 2 fold.

B1: 35S-RAR (retinoic acid receptor, from pCMX hRARα) (receptor, human, UniProt P10276 1-462, looked up)
chain: MASNSSSCPTPGGGHLNGYPVPPYAFFFPPMLGGLSPPGALTTLQHQLPVSGYSTPSPATIETQSSSSEEIVPSPPSPPPLPRIYKPCFVCQDKSSGYHYGVSACEGCKGFFRRSIQKNMVYTCHRDKNCIINKVTRNRCQYCRLQKCFEVGMSKESVRNDRNKKKKEVPKPECSESYTLTPEVGELIEKVRKAHQETFPALCQLGKYTTNNSSEQRVSLDIDLWDKFSELSTKCIIKTVEFAKQLPGFTTLTIADQITLLKAACLDILILRICTRYTPEQDTMTFSDGLTLNRTQMHNAGFGPLTDLVFAFANQLLPLEMDDAETGLLSAICLICGDRQDLEQPDRVDMLQEPLLEALKVYVRKRRPSRPHMFPKMLMKITDLRSISAKGAERVITLKMEIPGSMPPLIQEMLENSEGLDTLSGQPGGGGRDGGGLAPPPGSCSPSLSPSSNRSSPATHSP
modifications: 35S-methionine label
Q: Does B1 bind [3]?
A: Result: no binding

B2: 35S-RXR (retinoid X receptor, from pCMX hRXRα) (receptor, human, UniProt P19793 1-462, looked up)
chain: MDTKHFLPLDFSTQVNSSLTSPTGRGSMAAPSLHPSLGPGIGSPGQLHSPISTLSSPINGMGPPFSVISSPMGPHSMSVPTTPTLGFSTGSPQLSSPMNPVSSSEDIKPPLGLNGVLKVPAHPSGNMASFTKHICAICGDRSSGKHYGVYSCEGCKGFFKRTVRKDLTYTCRDNKDCLIDKRQRNRCQYCRYQKCLAMGMKREAVQEERQRGKDRNENEVESTSSANEDMPVERILEAELAVEPKTETYVEANMGLNPSSPNDPVTNICQAADKQLFTLVEWAKRIPHFSELPLDDQVILLRAGWNELLIASFSHRSIAVKDGILLATGLHVHRNSAHSAGVGAIFDRVLTELVSKMRDMQMDKTELGCLRAIVLFNPDSKGLSNPAEVEALREKVYASLEAYCKHKYPEQPGRFAKLLLRLPALRSIGLKCLEHLFFFKLIGDTPIDTFLMEMLEAPHQMT
modifications: 35S-methionine label
Q: Does B2 bind [3]?
A: Result: no binding
